Molecular target: recombinant venestatin (Strongyloides venezuelensis)
Experiment: ELISA; r-venestatin (4 ug/mL) coated on wells; RAGE or TLR4 (0-4 ug/mL) in buffer A (50 mM Tris-HCl pH 7, 10 mM NaCl, 5 mM CaCl2), ambient temperature, 1 h; detected with anti-RAGE or anti-TLR4 antibodies; KD by Scatchard plot

## recombinant human RAGE (receptor for advanced glycation end products) (from UniProt Q15109 23-342)
  Kd: 0.0436 µM
